From patent US20140187616A1

Molecular target: Drosophila olf186-F-RB (Drosophila) (UniProt Q9U6B8)
Assay: cell-based or functional assay

Sequence of UniProt Q9U6B8 (Q9U6B8 whole entry): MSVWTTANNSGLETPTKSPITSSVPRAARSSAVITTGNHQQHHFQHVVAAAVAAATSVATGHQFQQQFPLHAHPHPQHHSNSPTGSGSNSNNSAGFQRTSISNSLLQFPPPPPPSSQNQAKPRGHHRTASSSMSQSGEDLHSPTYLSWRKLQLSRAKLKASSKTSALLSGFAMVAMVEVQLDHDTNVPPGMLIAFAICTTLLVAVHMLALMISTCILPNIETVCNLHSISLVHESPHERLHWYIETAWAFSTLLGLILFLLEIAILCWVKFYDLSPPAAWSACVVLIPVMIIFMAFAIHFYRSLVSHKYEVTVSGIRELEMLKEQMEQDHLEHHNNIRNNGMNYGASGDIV

Drosophila Stim (from UniProt P83094 24-570)
CRAC current density (whole-cell patch clamp, cotransfected S2 cells): 8 fold
